Data published in article PMC5524982.

Key:
[1] = molecular target: Selenomethionine-labelled PmScsC (Proteus mirabilis); experiment: crystal structure; compact structure: selenomethionine-labelled PmScsC, 2.85 M sodium malonate pH 5.8 with 0.1 M cobalt(II) chloride, 20 °C; 24 copies (8 trimers) in the asymmetric unit
[2] = molecular target: Proteus mirabilis ScsC (PmScsC), wild type, lacking the predicted secretion signal (Proteus mirabilis); experiment: cross-linking; 150 μM purified PmScsC in 50 mM HEPES pH 8.5 with 3 mM DTSSP, 30 s–30 min, 23 °C; non-reducing SDS-PAGE, Coomassie; 50 mM DTT as control cleaves the cross-links
[3] = molecular target: Proteus mirabilis ScsC (PmScsC), wild type, lacking the predicted secretion signal (Proteus mirabilis); experiment: crystal structure; transitional structure: oxidized PmScsC, 2.85 M sodium malonate pH 5.8 with 0.1 M copper(II) chloride, 20 °C; 6 molecules (two trimers) in the asymmetric unit
[4] = molecular target: Proteus mirabilis ScsC (PmScsC), wild type, lacking the predicted secretion signal (Proteus mirabilis); experiment: crystal structure; extended structure: oxidized PmScsC with 2.5 mM copper(II) chloride, 32% Jeffamine M-600 pH 7, 0.1 M HEPES pH 8, 20 °C; one molecule in the asymmetric unit, trimer generated by crystal symmetry
[5] = molecular target: Proteus mirabilis ScsC (PmScsC), wild type, lacking the predicted secretion signal (Proteus mirabilis); experiment: SEC-MALS; Superdex 200 or Superdex 75 10/300 GL, 25 mM Tris, 150 mM NaCl, pH 7.5; 500 μl of 3 mg ml^-1 injected, 1.0 ml min^-1
[6] = molecular target: Proteus mirabilis ScsC (PmScsC), wild type, lacking the predicted secretion signal (Proteus mirabilis); experiment: SAXS; reduced PmScsC in 25 mM HEPES pH 7.5, 150 mM NaCl, 1 mM DTT; Australian Synchrotron SAXS-WAXS beamline; also pH 6.0-8.0 and 150-1,500 mM NaCl

Measured: stoichiometry N

Selenomethionine-labelled PmScsC (enzyme)
3: [1]

Proteus mirabilis ScsC (PmScsC), wild type, lacking the predicted secretion signal (enzyme)
not listed: [1]
3: all other assays above
